For assay [1], the target named is full length (mature) cynomolgus monkey TSLP, recombinant (cynomolgus monkey). Description: cell-based or functional assay.
Assay [2] has the same target. Description: ELISA RBA, geometric mean. For orientation: An ELISA detects its analyte on a solid surface through an enzyme-linked reagent.
Assay [3] has the same target. The experiment in a line: SPR, biotinylated TSLP on SA chip; all concentrations (footnote 2).
For assay [4] the target is unchanged. The experiment in a line: SPR, biotinylated TSLP on SA chip; value excluding 1000 nM concentration.
The target is the same in assay [5]. Description: SPR, biotinylated TSLP on SA chip (Biacore 4000).
The target is the same in assay [6]. The experiment in a line: RBA, geometric mean (n = 2).
The target is the same in assay [7]. Description: SPR with biotinylated TSLP; mean of two experiments.
Assay [8] concerns the target pre-existing human anti-VK (HAVK) antibodies. The experiment in a line: MSD bridging immunoassay: biotinylated and ruthenylated dAb cross-linked by antibodies in 5% serum of healthy subjects; rate over donors.

Substitutions are numbered along the chain they refer to. “And” between values parts separate entries of the source, which are not always exact repeats. Equal entries are not always repeated.

Broadly, the IC50 is the point on the concentration scale where inhibition reaches its midpoint. Broadly, the Kd is the equilibrium constant for the complex coming apart. The koff is the first-order rate constant of dissociation. For orientation: kon means a measure of how fast the partners come together.

B1: DOM30h-440-57 (protein)
VL: DIQMTQSPSSLSASVGDRVTITCRASRPIRNWLDWYQQKPGKAPELLIWGASHLQSGVPSRFSGSGSGTDFTLTISSLQPEDFATYYCMQIGDDPVTFGQGTKVEIKR
Consider B1, for which the pSTAT5 assay in SW756 cells, Geometric Mean IC50 in assay [1] came out at 1.6 nM. Besides, the concentration for half-maximal inhibition (IC50) in assay [2] was 0.36 nM. Further, the dissociation constant (Kd) in assay [3] turned out to be 4.95 nM; in assay [4], 1.92 nM.

B2: DOM30h-440-63 (protein)
VL: B1 VL with E45K, D93S
In the case of B2, in assay [1], the pSTAT5 assay in SW756 cells, Geometric Mean IC50 turned out to be 2.4 nM. Besides, the IC50 in assay [2] was 0.83 nM. The Kd in assay [5] is 5.98 nM.

B3: DOM30h-440-58 (protein)
VL: B1 VL with E45K, M89L, G92A
Regarding B3, the pSTAT5 assay in SW756 cells, Geometric Mean IC50 in assay [1] stood at 3.43 nM. Moreover, in assay [2], the IC50 turned out to be 0.21 nM. In addition, in assay [5], the dissociation constant Kd was 3.42 nM.

B4: DOM30h-440-55 (protein)
VL: B1 VL with E45K, M89V, D93E
Take B4: the pSTAT5 assay in SW756 cells, Geometric Mean IC50 in assay [1] stood at 3.12 nM. Also, the IC50 in assay [2] was found to be 0.55 nM. Further, the dissociation constant Kd in assay [5] was 1.61 nM.

B5: DOM30h-440-60 (protein)
VL: B1 VL with E45K, M89I, I91F, D93E
In the case of B5, in assay [1], the pSTAT5 assay in SW756 cells, Geometric Mean IC50 came out at 11.2 nM. In assay [2], the IC50 worked out at 2.65 nM. For the same molecule, in assay [5], the Kd worked out at 7.81 nM.

B6: DOM30h-440-65 (protein)
VL: B1 VL with E45K, D93E
Consider B6, for which, in assay [1], the pSTAT5 assay in SW756 cells, Geometric Mean IC50 was determined as 3.8 nM. Besides, the half-maximal inhibitory concentration (IC50) in assay [2] worked out at 0.29 nM. The dissociation constant (Kd) in assay [5] worked out at 3.11 nM.

B7: DOM30h-440-56 (protein)
VL: B1 VL with E45K, I75V, D93E
Turning to B7, the pSTAT5 assay in SW756 cells, Geometric Mean IC50 in assay [1] was determined as 4.74 nM. Further, in assay [2], the half-inhibitory concentration (IC50) is 0.55 nM. For the same molecule, the dissociation constant (Kd) in assay [5] is 2.97 nM.

B8: DOM30h-440-53 (protein)
VL: B1 VL with E45K, M89L, I91V, D93E
Regarding B8, the pSTAT5 assay in SW756 cells, Geometric Mean IC50 in assay [1] amounted to 7.28 nM. In assay [2], the IC50 came out at 1.3 nM. For the same molecule, the Kd in assay [5] was found to be 5.79 nM.

B9: DOM30h-440-64 (protein)
VL: B1 VL with E45K, M89L, D93E
Take B9: in assay [1], the pSTAT5 assay in SW756 cells, Geometric Mean IC50 is 3.36 nM. In addition, the IC50 in assay [2] amounted to 0.87 nM. Moreover, the dissociation constant Kd in assay [5] was 4.29 nM.

B10: DOM30h-440-54 (protein)
VL: B1 VL with E45K, M89W, I91L, G92A, D93F, V96T
For the molecule B10, the pSTAT5 assay in SW756 cells, Geometric Mean IC50 in assay [1] was 2.45 nM. Further, the IC50 in assay [2] was determined as 0.67 nM. Further, in assay [5], the Kd came to 6.24 nM.

B11: DOM30h-440-81/86 (protein)
VL: DIQMTQSPSSLSASVGDRVTITCRASRPIRNWLDWYQQKPGKAPKLLIWGASHLQSGVPSRFSGSGSGTDFTLTISSLQPEDFATYYCVQIGEDPVTFGQGTKVEIK
Consider B11, for which the Inhibition of TSLP-induced pSTAT5 in SW756 cells, Geometric Mean IC50 (n = 5) in assay [1] was determined as 4 nM. Moreover, the IC50 in assay [6] was 2.05 nM. Moreover, in assay [7], the equilibrium dissociation constant (Kd) is 0.511 nM and 0.51 nM; the dissociation rate constant (koff) amounted to 0.000774 s⁻¹; the on-rate (kon) amounted to 1.62e+06 M⁻¹ s⁻¹. This molecule also came in with a frequency of sera giving a positive signal (above the assay cutpoint) in assay [8] of 6.7%.

Values taken from patent publication US20170260266A1.
